The source of these data is patent US20220073581A1 (UCB, published 2022).

Experiment [1] concerns the target T1, IL-2-Rβ (IL-2 receptor β chain, R&D Systems) (UniProt P14784 27-239).
T1 construct: also called IL-2-sRβ
T1 sequence (looked up): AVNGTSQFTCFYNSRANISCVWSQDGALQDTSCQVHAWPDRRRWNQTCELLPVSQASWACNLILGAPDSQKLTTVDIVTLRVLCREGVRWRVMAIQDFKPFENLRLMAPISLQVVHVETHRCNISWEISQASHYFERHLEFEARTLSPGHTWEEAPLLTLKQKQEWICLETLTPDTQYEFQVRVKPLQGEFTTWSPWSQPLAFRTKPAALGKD
Kind of experiment: SPR (Biacore), fusion captured on anti-human F(ab)2, 100 nM IL-2-sRβ injected, with or without premixed 200 nM IL-15. For orientation: In SPR one partner is held on a chip, and binding of the other changes the refractive index at the surface.

Experiment [2] concerns the target T1, IL-2-Rβ (IL-2 receptor β chain, R&D …). The description is as above. This is another data set of the same source.
In experiment [3] the target is Human serum albumin (HSA), Jackson ImmunoResearch catalog #009-000-051 (human, UniProt P02768 25-609). Kind of experiment: SPR (Biacore), fusion captured from supernatant on anti-human F(ab)2, 1000 nM HSA injected.
Experiment [4] deals with T1, IL-2-Rβ (IL-2 receptor β chain, R&D …). Kind of experiment: SPR (Biacore), fusion captured from supernatant on anti-human F(ab)2, 100 nM IL-2-Rβ injected.
For experiment [5], the target named is T2, IL-15-Rα-hFc (R&D Systems) (UniProt Q13261 31-205).
T2 construct: Bought reagent; not shown: human Fc (hFc)
Kind of experiment: SPR (Biacore), fusion captured from supernatant on anti-human F(ab)2, 100 nM IL-15-Rα injected.

Another experiment has as its target IL-6 (R&D Systems) (UniProt P05231 30-212, limits assumed). Kind of experiment: SPR (Biacore), fusion captured on anti-human F(ab)2, 100 nM IL-6 injected alone or with 1000 nM HSA.
The target in experiment [6] is T1, IL-2-Rβ (IL-2 receptor β chain, R&D …). Kind of experiment: SPR (Biacore), fusion captured on anti-human F(ab)2, 100 nM IL-2-sRβ injected, with or without premixed 200 nM IL-15. This is another data set of the same source.

B1: CA497/IL-15Fwk3 (anti-IL-17A CA497 Fab with human IL-15 inserted into framework 3 of the VH domain) (Fab)
heavy: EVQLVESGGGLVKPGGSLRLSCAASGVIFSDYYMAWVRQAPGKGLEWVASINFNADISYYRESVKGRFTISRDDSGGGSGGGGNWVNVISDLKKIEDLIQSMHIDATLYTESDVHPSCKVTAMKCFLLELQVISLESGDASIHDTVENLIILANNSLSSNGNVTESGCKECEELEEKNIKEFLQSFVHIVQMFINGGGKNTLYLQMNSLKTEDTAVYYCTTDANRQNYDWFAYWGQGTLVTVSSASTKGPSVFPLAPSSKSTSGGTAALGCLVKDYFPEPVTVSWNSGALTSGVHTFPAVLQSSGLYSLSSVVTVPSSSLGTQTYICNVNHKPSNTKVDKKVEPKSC
light: AIQLTQSPSSLSASVGDRVTITCKASESVSSSMYSYMHWYQQKPGKAPKLLIYRASNLESGVPSRFSGSGSGTDFTLTISSLQPEDFATYYCQQSWTAPRTFGQGTKVEIKRTVAAPSVFIFPPSDEQLKSGTASVVCLLNNFYPREAKVQWKVDNALQSGNSQESVTEQDSKDSTYSLSSTLTLSKADYEKHKVYACEVTHQGLSSPVTKSFNRGEC
notes: also called CA497/IL-15 antibody fusion protein
B1: in experiment [1], the binding result was “binds”.

B2: CA240/IL-15Fwk3 (anti-IL-6 CA240 Fab with human IL-15 inserted into framework 3 of the VH domain) (Fab)
heavy: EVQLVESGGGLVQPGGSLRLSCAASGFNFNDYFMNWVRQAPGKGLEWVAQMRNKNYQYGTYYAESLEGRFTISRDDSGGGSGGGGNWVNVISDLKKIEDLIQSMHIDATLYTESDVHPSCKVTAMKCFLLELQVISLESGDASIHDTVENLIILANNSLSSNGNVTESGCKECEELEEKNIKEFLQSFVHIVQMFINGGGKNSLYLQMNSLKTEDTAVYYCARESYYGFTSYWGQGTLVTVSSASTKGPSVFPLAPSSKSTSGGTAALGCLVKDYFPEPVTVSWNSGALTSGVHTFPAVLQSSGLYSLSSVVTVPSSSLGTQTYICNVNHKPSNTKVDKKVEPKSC
light: DIQMTQSPSSLSASVGDRVTITCQASQDIGISLSWYQQKPGKAPKLLIYNANNLADGVPSRFSGSGSGTDFTLTISSLQPEDFATYYCLQHNSAPYTFGQGTKLEIKRTVAAPSVFIFPPSDEQLKSGTASVVCLLNNFYPREAKVQWKVDNALQSGNSQESVTEQDSKDSTYSLSSTLTLSKADYEKHKVYACEVTHQGLSSPVTKSFNRGEC
notes: also called CA240/IL-15 antibody fusion protein
On to B2, for which the binding result in experiment [2] is “binds”.

B3: CA645/IL-15Fwk3 (CA645 Fab with human IL-15 inserted into framework 3 of the VH domain, original linkers) (Fab)
heavy: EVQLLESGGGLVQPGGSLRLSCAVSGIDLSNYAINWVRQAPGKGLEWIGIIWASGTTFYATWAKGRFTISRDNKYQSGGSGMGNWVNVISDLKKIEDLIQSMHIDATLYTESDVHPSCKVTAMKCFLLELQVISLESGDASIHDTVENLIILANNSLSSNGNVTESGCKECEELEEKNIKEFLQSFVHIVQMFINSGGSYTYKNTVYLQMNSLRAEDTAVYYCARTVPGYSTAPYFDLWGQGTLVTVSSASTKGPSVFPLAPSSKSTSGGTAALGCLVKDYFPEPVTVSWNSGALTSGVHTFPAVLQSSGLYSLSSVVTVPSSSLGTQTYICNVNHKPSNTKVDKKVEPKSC
light: DIQMTQSPSSVSASVGDRVTITCQSSPSVWSNFLSWYQQKPGKAPKLLIYEASKLTSGVPSRFSGSGSGTDFTLTISSLQPEDFATYYCGGGYSSISDTTFGGGTKVEIKRTVAAPSVFIFPPSDEQLKSGTASVVCLLNNFYPREAKVQWKVDNALQSGNSQESVTEQDSKDSTYSLSSTLTLSKADYEKHKVYACEVTHQGLSSPVTKSFNRGEC
notes: Tested as HEK293 supernatant diluted 1 in 5, captured on anti-human F(ab)2; also called CA645/IL-15 antibody fusion protein
As for B3, the binding result in experiment [3], in experiment [4] and in experiment [5] was “binds” in each case.

B4: CA645/VHH15Fwk3 (CA645 Fab with anti-IL-6 camelid VHH15 inserted into framework 3 of the VH domain) (bispecific antibody)
heavy: EVQLLESGGGLVQPGGSLRLSCAVSGIDLSNYAINWVRQAPGKGLEWIGIIWASGTTFYATWAKGRFTISRDNSGGGGSGGGGSQVQLVESGGGSVQAGGSLRLSCVAASGYTGCTYDMRWYRQAPGKEREFVSGIDSDGRATYADSVKGRFTISQSNAKIAVYLQMDSLKLEDTAMYYCNLQCLRYPGEYYWGQGTQVTVSSGGGGSGGGGSKNTVYLQMNSLRAEDTAVYYCARTVPGYSTAPYFDLWGQGTLVTVSSASTKGPSVFPLAPSSKSTSGGTAALGCLVKDYFPEPVTVSWNSGALTSGVHTFPAVLQSSGLYSLSSVVTVPSSSLGTQTYICNVNHKPSNTKVDKKVEPKSC
light: DIQMTQSPSSVSASVGDRVTITCQSSPSVWSNFLSWYQQKPGKAPKLLIYEASKLTSGVPSRFSGSGSGTDFTLTISSLQPEDFATYYCGGGYSSISDTTFGGGTKVEIKRTVAAPSVFIFPPSDEQLKSGTASVVCLLNNFYPREAKVQWKVDNALQSGNSQESVTEQDSKDSTYSLSSTLTLSKADYEKHKVYACEVTHQGLSSPVTKSFNRGEC
notes: also called CA645/VHH15 antibody fusion protein
Regarding B4, the binding result in the experiment with IL-6 (R&D Systems) is listed as “binds”.

B5: CA645/IL-2Fwk3 (CA645 Fab with human IL-2 inserted into framework 3 of the VH domain) (Fab)
heavy: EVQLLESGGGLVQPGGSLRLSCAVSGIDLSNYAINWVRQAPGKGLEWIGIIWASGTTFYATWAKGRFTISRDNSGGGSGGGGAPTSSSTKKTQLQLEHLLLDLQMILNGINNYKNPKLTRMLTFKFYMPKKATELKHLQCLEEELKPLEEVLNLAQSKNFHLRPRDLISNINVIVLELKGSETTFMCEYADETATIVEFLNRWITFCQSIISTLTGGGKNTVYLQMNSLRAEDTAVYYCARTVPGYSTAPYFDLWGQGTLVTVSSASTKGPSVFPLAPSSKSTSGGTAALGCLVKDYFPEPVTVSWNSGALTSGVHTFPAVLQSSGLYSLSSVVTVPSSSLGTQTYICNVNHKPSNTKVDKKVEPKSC
light: DIQMTQSPSSVSASVGDRVTITCQSSPSVWSNFLSWYQQKPGKAPKLLIYEASKLTSGVPSRFSGSGSGTDFTLTISSLQPEDFATYYCGGGYSSISDTTFGGGTKVEIKRTVAAPSVFIFPPSDEQLKSGTASVVCLLNNFYPREAKVQWKVDNALQSGNSQESVTEQDSKDSTYSLSSTLTLSKADYEKHKVYACEVTHQGLSSPVTKSFNRGEC
notes: also called CA645/IL-2 antibody fusion protein
Consider B5, for which, in experiment [6], the binding result is listed as “binds”.
